One test deals with TPX2 (UniProt Q9ULW0). As to the kind of experiment: anti-FLAG resin co-IP, TPX2 blot. The conditions noted are these: reference: FLAG-ADD1 wild type, M phase; sites S726.
Test [1] addresses T1, FLAG-ADD1 S726A mutant, expressed in HeLa cells (UniProt P35611 1-737, S726A).
T1 construct: adducin-1 (ADD1) with S726A; source: HeLa cells expressing FLAG-ADD1 S726A (lentiviral vector pLAS3w.Pneo), in whole-cell lysate
T1 sequence (looked up): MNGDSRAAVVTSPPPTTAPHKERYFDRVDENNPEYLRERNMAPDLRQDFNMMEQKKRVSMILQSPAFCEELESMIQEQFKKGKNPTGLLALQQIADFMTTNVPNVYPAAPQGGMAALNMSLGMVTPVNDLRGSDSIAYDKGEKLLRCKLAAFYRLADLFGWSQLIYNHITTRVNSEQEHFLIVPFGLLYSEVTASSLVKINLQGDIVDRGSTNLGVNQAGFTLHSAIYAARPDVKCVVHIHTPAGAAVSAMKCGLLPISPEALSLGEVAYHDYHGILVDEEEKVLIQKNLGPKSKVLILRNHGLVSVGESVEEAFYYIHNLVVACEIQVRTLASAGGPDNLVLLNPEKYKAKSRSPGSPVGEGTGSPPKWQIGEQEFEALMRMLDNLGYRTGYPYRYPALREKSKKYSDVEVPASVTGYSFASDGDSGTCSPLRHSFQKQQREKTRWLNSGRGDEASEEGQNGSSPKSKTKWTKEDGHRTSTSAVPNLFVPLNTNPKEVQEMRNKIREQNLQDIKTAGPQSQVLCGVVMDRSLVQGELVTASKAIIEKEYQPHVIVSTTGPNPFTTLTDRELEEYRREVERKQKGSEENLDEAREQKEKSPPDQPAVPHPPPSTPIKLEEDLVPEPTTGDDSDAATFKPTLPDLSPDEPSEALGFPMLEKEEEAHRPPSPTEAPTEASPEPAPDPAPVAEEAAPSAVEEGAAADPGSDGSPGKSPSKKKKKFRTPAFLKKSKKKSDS
As to the kind of experiment: co-IP; HeLa cells expressing FLAG-ADD1 WT or S726A, synchronized at the M phase (nocodazole); lysates in TBS buffer (1% Triton X-100, 50 mM Tris-HCl pH 7.4, 150 mM NaCl) incubated with anti-FLAG M2 affinity resins for 16 h, eluted with FLAG peptide, blotted with anti-FLAG and anti-TPX2. The conditions noted are these: partners not purified.

Test [2] addresses T2, FLAG-ADD1 WT (adducin-1), transiently expressed in HEK293 cells (UniProt P35611 1-737).
T2 construct: adducin-1 (ADD1); pCMV-3Tag-3A probably adds a C-terminal 3x FLAG; also called FLAG-tagged ADD1; 293/FLAG-ADD1; source: HEK293, transiently transfected, in lysate
T2 sequence (looked up): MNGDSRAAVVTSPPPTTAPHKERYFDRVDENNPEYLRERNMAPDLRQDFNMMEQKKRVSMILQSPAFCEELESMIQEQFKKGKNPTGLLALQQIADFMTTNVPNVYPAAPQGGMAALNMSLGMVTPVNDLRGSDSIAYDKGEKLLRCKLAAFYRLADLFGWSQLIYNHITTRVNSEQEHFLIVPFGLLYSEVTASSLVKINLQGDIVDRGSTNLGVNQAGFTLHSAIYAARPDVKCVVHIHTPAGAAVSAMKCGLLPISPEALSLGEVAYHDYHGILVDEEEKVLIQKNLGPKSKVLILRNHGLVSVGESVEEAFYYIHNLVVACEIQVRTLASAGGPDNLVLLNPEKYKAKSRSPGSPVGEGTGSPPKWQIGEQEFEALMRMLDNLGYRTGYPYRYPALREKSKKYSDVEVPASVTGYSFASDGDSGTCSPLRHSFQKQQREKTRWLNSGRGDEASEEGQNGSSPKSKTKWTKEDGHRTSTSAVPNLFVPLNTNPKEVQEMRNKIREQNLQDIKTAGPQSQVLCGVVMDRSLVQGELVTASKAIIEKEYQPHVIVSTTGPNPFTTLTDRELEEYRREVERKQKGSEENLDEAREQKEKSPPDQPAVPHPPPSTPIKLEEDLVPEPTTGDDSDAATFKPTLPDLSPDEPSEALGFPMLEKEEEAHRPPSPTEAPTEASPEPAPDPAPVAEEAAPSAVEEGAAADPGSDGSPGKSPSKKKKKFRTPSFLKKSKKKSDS
The test is described as follows: pull-down; GST-TPX2 fusion proteins immobilised on glutathione agarose beads, incubated with 25 μg of lysates from HEK293 cells expressing FLAG-tagged ADD1 forms at 4°C for 60 min; washed with TBS buffer; blot with anti-FLAG. The conditions noted are these: one partner purified.

We go through three molecules from publication PMC6073210, “Adducin‐1 is essential for spindle pole integrity through its interaction with TPX2” (EMBO Reports, 2018).

Turning to “adducin-1 (ADD1) (from UniProt P35611) FLAG-ADD1 S726A, M phase”, the “TPX2 co-IP binding relative to wild type” value with TPX2 was “weaker”.

B1: TPX2, endogenous in HeLa cells (natural protein, human (endogenous in HeLa), UniProt Q9ULW0 1-747, looked up)
chain: MSQVKSSYSYDAPSDFINFSSLDDEGDTQNIDSWFEEKANLENKLLGKNGTGGLFQGKTPLRKANLQQAIVTPLKPVDNTYYKEAEKENLVEQSIPSNACSSLEVEAAISRKTPAQPQRRSLRLSAQKDLEQKEKHHVKMKAKRCATPVIIDEILPSKKMKVSNNKKKPEEEGSAHQDTAEKNASSPEKAKGRHTVPCMPPAKQKFLKSTEEQELEKSMKMQQEVVEMRKKNEEFKKLALAGIGQPVKKSVSQVTKSVDFHFRTDERIKQHPKNQEEYKEVNFTSELRKHPSSPARVTKGCTIVKPFNLSQGKKRTFDETVSTYVPLAQQVEDFHKRTPNRYHLRSKKDDINLLPSKSSVTKICRDPQTPVLQTKHRARAVTCKSTAELEAEELEKLQQYKFKARELDPRILEGGPILPKKPPVKPPTEPIGFDLEIEKRIQERESKKKTEDEHFEFHSRPCPTKILEDVVGVPEKKVLPITVPKSPAFALKNRIRMPTKEDEEEDEPVVIKAQPVPHYGVPFKPQIPEARTVEICPFSFDSRDKERQLQKEKKIKELQKGEVPKFKALPLPHFDTINLPEKKVKNVTQIEPFCLETDRRGALKAQTWKHQLEEELRQQKEAACFKARPNTVISQEPFVPKKEKKSVAEGLSGSLVQEPFQLATEKRAKERQELEKRMAEVEAQKAQQLEEARLQEEEQKKEELARLRRELVHKANPIRKYQGLEIKSSDQPLTVPVSPKFSTRFHC
notes: TPX2, endogenous protein of HeLa cells detected with anti-TPX2; source: endogenous, HeLa whole-cell lysate
Take B1: the “percent decrease of the interaction relative to FLAG-ADD1 WT” value in test [1] is approximately 50%.

B2: GST-TPX2 aa 120–370 fusion protein (domain or fragment, human, UniProt Q9ULW0 120-370, looked up)
chain: RSLRLSAQKDLEQKEKHHVKMKAKRCATPVIIDEILPSKKMKVSNNKKKPEEEGSAHQDTAEKNASSPEKAKGRHTVPCMPPAKQKFLKSTEEQELEKSMKMQQEVVEMRKKNEEFKKLALAGIGQPVKKSVSQVTKSVDFHFRTDERIKQHPKNQEEYKEVNFTSELRKHPSSPARVTKGCTIVKPFNLSQGKKRTFDETVSTYVPLAQQVEDFHKRTPNRYHLRSKKDDINLLPSKSSVTKICRDPQTP
notes: TPX2, Homo sapiens, aa 120–370 of the full-length cDNA (aa 1–747), subcloned into pGEX-2T; pGEX-2T probably places GST at the N-terminus; also called TPX2 aa 120–370 fragment; GST-tagged TPX2 aa 120–370; source: E. coli BL21, purified on glutathione agarose beads
For the molecule B2, the binding result in test [2] is on record as “binds”.
